Assay results as given in article PMC7506995 (EMBO Molecular Medicine, 2020).
Substitutions are numbered along the chain they refer to. Read-outs that look alike come from different tables or passages of the source.

How the values were obtained:
human recPrP_(23-230) [1] = biological target: T1, human recPrP_(23-230) (Homo sapiens, UniProt P04156)
[2] = biological target: T2, full-length recombinant mouse PrP (recPrP23-231) (Mus musculus, UniProt P04925); test: ELISA; details: both partners purified
T2 construct: source: recombinant, produced as described (Lysek & Wuthrich, 2004)

[3] = biological target: T2, full-length recombinant mouse PrP …; test: ELISA; details: both partners purified; remark: listed apart in the source
peptide P17 = biological target: T3, peptide P17 (Mus musculus); test: co-IP; details: both partners purified
T3 chain: TWGQPHGGGWGQ

[4] = biological target: T4, full-length recombinant mouse PrP (recPrP_(23-231)) (Mus musculus, UniProt P04925); test: SPR; […]; 25°C; 10 mM Tris/HCl pH 8.5, 500 mM NaCl, 3 mM EDTA, 0.05% Tween-20; 1:1 Langmuir fit; ProteOn XPR36; details: both partners purified
T4 construct: source: recombinant, produced as described (Lysek & Wuthrich, 2004)

human recPrP_(23-230) [5] = biological target: T1, human recPrP_(23-230); test: ELISA; details: both partners purified

B1: BB_VH3-21 (antibody, V domains shown)
VH: EVQLVESGGGLVKPGGSLRLSCAASGFTFSSYSMNWVRQAPGKGLEWVSSISSSSSYIYYADSVKGRFTISRDNAKNSLYLQMNSLRAEDTAVYYCARVSYGGYFDYWGQGTLVTVSS
VL: not shown
Human recPrP_(23-230) [1]
  binding result: binds

B2: BB_VH3-33 (antibody, V domains shown)
VH: QVQLVESGGGVVQPGRSLRLSCAASGFTFSSYGMHWVRQAPGKGLEWVAVIWYDGSNKYYADSVKGRFTISRDNSKNTLYLQMNSLRAEDTAVYYCAREHSYGGYFDYWGQGTLVTVSS
VL: not shown
Human recPrP_(23-230) [1]
  binding result: binds

B3: BB_VH3-66 (antibody, V domains shown)
VH: EVQLVESGGGLVQPGGSLRLSCAASGFTVSSNYMSWVRQAPGKGLEWVSVIYSGGSTYYADSVKGRFTISRDNSKNTLYLQMNSLRAEDTAVYYCARSGSYGGYFDYWGQGTLVTVSS
VL: not shown
Human recPrP_(23-230) [1]
  binding result: binds

B4: DW_VH3-53 (antibody, V domains shown)
VH: B3 VH with S7T, V12I, S98V, G99S, S100Y, Y101G, G103Y
VL: not shown
Human recPrP_(23-230) [1]
  binding result: binds

B5: Fab71 (Fab, V domains shown)
VH: B2 VH with W52S, D54E, E99H, H100V
VL: not shown
notes: source: E. coli BL21(DE3), purified (IMAC)
[2]
  EC50: 24.9 nM

B6: Fab8 (Fab, V domains shown)
VH: QVQLVESGGGVVQPGRSLRLSCAASGFTFSSYGMHWVRQAPGKGLEWVAVISYEGSNKYYADSVKGRFTISRDNSKNTLYLQMNSLRAEDTAVYYCARHYGGRLDYWGQGTLVTVSS
VL: not shown
notes: as for B5
[3]
  binding result: binds

B7: Fab10 (Fab, V domains shown)
VH: B6 VH with R103W, L104F
VL: not shown
notes: as for B5
[3]
  binding result: binds

B8: Fab12 (Fab, V domains shown)
VH: B6 VH with R103Q
VL: not shown
notes: as for B5
[3]
  binding result: binds

B9: Fab44 (Fab, V domains shown)
VH: QVQLVESGGGVVQPGRSLRLSCAASGFTFSSYGMHWVRQAPGKGLEWVAVISYEGSNKYYADSVKGRFTISRDNSKNTLYLQMNSLRAEDTAVYYCARVAYAVGSSYRSSSYSPGFDVWGQGTLVTVSS
VL: not shown
notes: as for B5
[3]
  binding result: binds

B10: Fab13 (Fab, V domains shown)
VH: QVQLVESGGGVVQPGRSLRLSCAASGFTFSSYGMHWVRQAPGKGLEWVAVISYEGSNKYYADSVKGRFTISRDNSKNTLYLQMNSLRAEDTAVYYCARVWSPDGYPGFDYWGQGTLVTVSS
VL: not shown
notes: as for B5
[3]
  binding result: binds

B11: Fab53 (Fab, V domains shown)
VH: QVQLVESGGGVVQPGRSLRLSCAASGFTFSSYGMHWVRQAPGKGLEWVAVISYEGSNKYYADSVKGRFTISRDNSKNTLYLQMNSLRAEDTAVYYCARVYVYRSYRHSSGYGYPGFDVWGQGTLVTVSS
VL: not shown
notes: as for B5
[3]
  binding result: binds

B12: Fab61 (Fab, V domains shown)
VH: B11 VH with V101P, R103P, S104Y, Y105V, R106Y, H107A, S108E, G110D, Y111G, G112S
VL: not shown
notes: as for B5
[3]
  binding result: binds

B13: Fab69 (Fab, V domains shown)
VH: QVQLVESGGGVVQPGRSLRLSCAASGFTFSSYGMHWVRQAPGKGLEWVAVISYEGSNKYYADSVKGRFTISRDNSKNTLYLQMNSLRAEDTAVYYCARVHPGVHYRPGGFDYWGQGTLVTVSS
VL: not shown
notes: as for B5
[3]
  binding result: binds

B14: Fab71 (Fab, V domains shown)
VH: B2 VH with W52S, D54E, E99H, H100V
VL: not shown
notes: also called anti-OR_(51-91) Fab71; source: E. coli BL21(DE3), pPE2 vector, purified by IMAC (Ni-NTA)
Peptide P17
  binding result: binds
[4]
  Kd: 6.2 nM
  koff: 0.00245 s⁻¹

B15: DK_VH3-07 Fab (Fab, V domains shown)
VH: EVQLVESGGGLVQPGGSLRLSCAASGFTFSSYWMSWVRQAPGKGLEWVANIKQDGSEKYYVDSVKGRFTISRDNAKNSLYLQMNSLRAEDTAVYYCARSYGGYFDYWGQGTLVTVSS
VL: QSALTQPASVSGSPGQSITISCTGTSSDVGGYNYVSWYQQHPGKAPKLMIYEVSNRPSGVSNRFSGSKSGNTASLTISGLQAEDEADYYCTSYTSSSTHVVFGGGTKLTVL
notes: source: expressed in bacteria (pPE2 vector), purified
Human recPrP_(23-230) [5]
  EC50: 62.8 µM
  binding result: no binding (tested: Fabs tested starting from 3 μM)
